Sequences and labels used below:
B1: scFv; the commonest letter at each place (parent)
chain 1: EVKLDETGGGLVQPGRPMKLSCVASGFTFSDYWMNWVRQSPEKGLEWVAQIRNKPYNYETYYSDSVKGRFTISRDDSKSSVYLQMNNLRVEDMGIYYCTGSYYGMDYWGQGTSVTVS
chain 2: DVVMTQTPLSLPVSLGDQASISCRSSQSLVHSNGNTYLRWYLQKPGQSPKVLIYKVSNRFSGVPDRFSGSGSGTDFTLKISRVEAEDLGVYFCSQSTHVPWTFGGGTKLEIK

The data set “fluorescein” covers variants of B1. As to the kind of experiment: Kd (Tite-Seq). Conditions: with fluorescein; format: scFv 4-4-20, heavy + light.
The variants in data set [1] derive from B1. As to the kind of experiment: yeast surface expression (ratio to wild type); higher = more expressed. Conditions: format: scFv 4-4-20, heavy + light.

Experimental findings from the FLAb antibody collection (doi:10.7554/elife.23156) are described below.

By Kd is commonly meant the constant that tells how readily two partners part at equilibrium.

chain 1 S30A M34L: the equilibrium dissociation constant (Kd) with fluorescein stood at 0.00115 µM. Also, the yeast surface expression in data set [1] was 1.1.

In the case of chain 1 Y32M M34Q, in the data set with fluorescein, the Kd was at least 10 µM. Also, the yeast surface expression in data set [1] was found to be 0.437.

With chain 1 F29W D31H, the Kd with fluorescein was 0.0221 µM. Moreover, in data set [1], the yeast surface expression stood at 0.626.

For chain 1 G104E G109Y, in the data set with fluorescein, the equilibrium dissociation constant (Kd) is at least 10 µM. In data set [1], the yeast surface expression came out at 0.384.

As for chain 1 D31L V37K, in the data set with fluorescein, the Kd was 9.5 µM. Besides, the yeast surface expression in data set [1] turned out to be 0.686.

chain 1 W108S: in the data set with fluorescein, the equilibrium dissociation constant (Kd) stood at 0.0158 µM. In addition, the yeast surface expression in data set [1] was 0.51.

In the case of chain 1 G100M M105P Y107D, the Kd with fluorescein is at least 10 µM. In addition, in data set [1], the yeast surface expression came out at 0.325.

Consider chain 1 T28G M34P N35T, for which the dissociation constant (Kd) with fluorescein is at least 10 µM. In data set [1], the yeast surface expression was 0.318.

Regarding chain 1 S30R D31R, the Kd in the data set with fluorescein stood at 0.00827 µM. The yeast surface expression in data set [1] was 0.684.

As to chain 1 W36F V37Y, in the data set with fluorescein, the Kd was at least 10 µM. For the same variant, the yeast surface expression in data set [1] worked out at 0.738.

In the case of chain 1 F29L N35D, the equilibrium dissociation constant (Kd) with fluorescein is at least 10 µM. In addition, in data set [1], the yeast surface expression was determined as 0.64.

Consider chain 1 G100V Y107H, for which, in the data set with fluorescein, the Kd is at least 10 µM. Besides, the yeast surface expression in data set [1] was 0.772.

Consider chain 1 D31L Y32M W36M, for which the equilibrium dissociation constant (Kd) with fluorescein is at least 10 µM. Besides, the yeast surface expression in data set [1] turned out to be 0.543.

For the variant chain 1 N35S, the Kd with fluorescein was at least 10 µM. In addition, the yeast surface expression in data set [1] turned out to be 1.04.

As for chain 1 W33V V37S, in the data set with fluorescein, the dissociation constant Kd is at least 10 µM. In data set [1], the yeast surface expression was 0.535.

In the case of chain 1 F29K S30A W36A, the Kd in the data set with fluorescein was determined as 0.0767 µM. Besides, the yeast surface expression in data set [1] amounted to 0.756.

Consider chain 1 T28Y N35S, for which the equilibrium dissociation constant (Kd) with fluorescein was at least 10 µM. In data set [1], the yeast surface expression stood at 0.691.

Regarding chain 1 W33R M34D, the Kd with fluorescein was at least 10 µM. In data set [1], the yeast surface expression was 0.356.

In the case of chain 1 G100T Y102N, the equilibrium dissociation constant (Kd) in the data set with fluorescein is at least 10 µM. For the same variant, in data set [1], the yeast surface expression is 0.932.

Take chain 1 G100M G109W: in the data set with fluorescein, the Kd is at least 10 µM. Further, in data set [1], the yeast surface expression is 0.185.

As for chain 1 D31Q W36V, the Kd with fluorescein is at least 10 µM. Moreover, in data set [1], the yeast surface expression was determined as 0.596.

As for chain 1 M34K W36M, the Kd with fluorescein was at least 10 µM. The yeast surface expression in data set [1] came out at 0.273.

Regarding chain 1 Y32C N35M, the Kd in the data set with fluorescein was at least 10 µM. In addition, the yeast surface expression in data set [1] came to 0.536.

chain 1 Y32F V37C: the Kd with fluorescein worked out at 0.00142 µM. The yeast surface expression in data set [1] amounted to 0.914.

For the variant chain 1 S101H W108Y, the dissociation constant (Kd) in the data set with fluorescein is at least 10 µM. In addition, the yeast surface expression in data set [1] turned out to be 0.408.

For the variant chain 1 D31H V37I, the dissociation constant (Kd) with fluorescein stood at 0.00062 µM. Further, the yeast surface expression in data set [1] worked out at 0.799.

Turning to chain 1 F29C, in the data set with fluorescein, the Kd was 0.195 µM. Also, the yeast surface expression in data set [1] worked out at 0.885.

With chain 1 F29H, in the data set with fluorescein, the dissociation constant (Kd) stood at 3.74 µM. For the same variant, the yeast surface expression in data set [1] came to 0.884.

With chain 1 F29D, in the data set with fluorescein, the dissociation constant (Kd) is at least 10 µM. For the same variant, the yeast surface expression in data set [1] came to 1.07.

In the case of chain 1 S30Y W36N, the Kd with fluorescein was at least 10 µM. Also, the yeast surface expression in data set [1] was determined as 0.436.

As for chain 1 D106A W108M, in the data set with fluorescein, the dissociation constant Kd is at least 10 µM. Moreover, the yeast surface expression in data set [1] stood at 0.713.

For the variant chain 1 D31V M34R, the Kd in the data set with fluorescein is 0.195 µM. Further, the yeast surface expression in data set [1] is 0.17.

Regarding chain 1 G100F S101I, in the data set with fluorescein, the Kd is at least 10 µM. The yeast surface expression in data set [1] is 0.501.

With chain 1 S30D N35R, the equilibrium dissociation constant (Kd) with fluorescein is at least 10 µM. Also, in data set [1], the yeast surface expression came out at 0.195.

On to chain 1 Y103R G109V, for which the Kd in the data set with fluorescein is at least 10 µM. Besides, the yeast surface expression in data set [1] amounted to 0.47.

With chain 1 Y103G, the Kd with fluorescein worked out at 0.0171 µM. In addition, the yeast surface expression in data set [1] came to 1.14.

Turning to chain 1 Y103V G104W, in the data set with fluorescein, the Kd is at least 10 µM. Also, the yeast surface expression in data set [1] came to 0.419.

chain 1 G100D G109T: the equilibrium dissociation constant (Kd) with fluorescein was at least 10 µM. The yeast surface expression in data set [1] was 0.21.

On to chain 1 G104L W108C, for which the dissociation constant Kd with fluorescein is at least 10 µM. The yeast surface expression in data set [1] was 0.296.

In the case of chain 1 M105A W108Q, in the data set with fluorescein, the equilibrium dissociation constant (Kd) is at least 10 µM. Further, the yeast surface expression in data set [1] worked out at 0.38.

As for chain 1 D106L G109C, the Kd with fluorescein is at least 10 µM. Further, in data set [1], the yeast surface expression amounted to 0.166.

As to chain 1 Y103C G109Y, the equilibrium dissociation constant (Kd) with fluorescein is at least 10 µM. The yeast surface expression in data set [1] came to 0.494.

Regarding chain 1 G100A, the equilibrium dissociation constant (Kd) with fluorescein came to 0.0017 µM. Further, the yeast surface expression in data set [1] is 0.964.

With chain 1 G100N, the Kd with fluorescein was at least 10 µM. In addition, the yeast surface expression in data set [1] is 0.668.

For chain 1 G100I, the Kd with fluorescein is at least 10 µM. In addition, the yeast surface expression in data set [1] came to 0.852.

Turning to chain 1 S30I M34P, the equilibrium dissociation constant (Kd) with fluorescein is at least 10 µM. Besides, in data set [1], the yeast surface expression was 0.36.

As for chain 1 Y103Q M105Q, the equilibrium dissociation constant (Kd) with fluorescein came out at 4.37 µM. In addition, the yeast surface expression in data set [1] was 1.14.

With chain 1 G104L M105L, in the data set with fluorescein, the Kd was at least 10 µM. For the same variant, in data set [1], the yeast surface expression is 0.303.

Take chain 1 F29D M34I: in the data set with fluorescein, the Kd was at least 10 µM. The yeast surface expression in data set [1] turned out to be 0.946.

As for chain 1 T28Q D31A, the dissociation constant (Kd) in the data set with fluorescein worked out at 0.00575 µM. For the same variant, the yeast surface expression in data set [1] stood at 0.845.

Consider chain 1 W108G G109V, for which the Kd with fluorescein was at least 10 µM. Moreover, the yeast surface expression in data set [1] came out at 0.228.

Regarding chain 1 T28P W36Y, the dissociation constant Kd with fluorescein was found to be 0.00422 µM. Further, the yeast surface expression in data set [1] worked out at 1.05.

For the variant chain 1 S101C Y103L, in the data set with fluorescein, the Kd was at least 10 µM. Further, the yeast surface expression in data set [1] worked out at 0.522.

For the variant chain 1 G100V G109L, the dissociation constant Kd in the data set with fluorescein is at least 10 µM. In data set [1], the yeast surface expression was 0.256.

As to chain 1 D106W Y107N, the dissociation constant Kd in the data set with fluorescein was at least 10 µM. Besides, in data set [1], the yeast surface expression was found to be 0.222.

chain 1 Y102H G109W: the dissociation constant Kd in the data set with fluorescein is at least 10 µM. Moreover, in data set [1], the yeast surface expression turned out to be 0.254.

Turning to chain 1 W33I N35W, the Kd with fluorescein is at least 10 µM. Also, the yeast surface expression in data set [1] was found to be 0.803.

Take chain 1 Y102M D106T: the dissociation constant (Kd) with fluorescein is at least 10 µM. Besides, in data set [1], the yeast surface expression was 1.07.
